Source: patent US5935824A, “Protein expression system” (Technologene, Inc., priority 1996, dated 1999)

Substrate: C[C@H](NC(=O)[C@H](Cc1ccccc1)NC(=O)OCc1ccccc1)C(=O)O
Assay: Flow digestion of N-CBZ-peptides through CPD-Y Acti Disk, ninhydrin assays
Assay type: biochemical, yeast
Settings: other: free enzyme; calculated from Sigma specific activity
Protocol: The reported Km values for CPD-Y have been generated using extremely low enzyme concentration compared to substrate concentration. The value for Km represents the concentration of substrate that will produce 1/2 the maximum velocity for the initial reaction rates. During the testing of the immobilized CPD-Y enzyme disks with various dipeptide substrates, the maximum flow rate that can be achieved without any substantial increase in the pressure of the solution, is 4 ml/min. At this flow rate, the substrate remains within the immobilized enzyme matrix for 1.74 seconds. This value is determined by dividing the internal porous volume of the matrix to which the enzyme is immobilized (115 μL/4000 μL, min^-1). […]
Standard ninhydrin assay: Hydrolysis of the non-proline containing N-CBZ-dipeptides was determined by assaying the amount of free amino acid released by a colorometric ninhydrin reaction at a pH greater than 5.2. […] Samples were then cooled to room temperature and 600 μl of 60% ethanol was added as the diluent and the absorbance was read at 570 nm on a Beckman DU 7000 spectrophotometer.
Proline ninhydrin assay: Hydrolysis of proline-containing N-CBZ-dipeptides were measured with a modified version of the assay described by Magne and Larher [Anal. Biochem., 200:115 (1982)]. […]

B1: carboxypeptidase Y (CPD-Y) immobilized to Acti-Disk (Saccharomyces cerevisiae S288C) (protein)
chain: KIKDPKILGIDPNVTQYTGYLDVEDEDKHFFFWTFESRNDPAKDPVILWLNGGPGCSSLTGLFFELGPSSIGPDLKPIGNPYSWNSNATVIFLDQPVNVGFSYSGSSGVSNTVAAGKDVYNFLELFFDQFPEYVNKGQDFHIAGESYAGHYIPVFASEILSHKDRNFNLTSVLIGNGLTDPLTQYNYYEPMACGEGGEPSVLPSEECSAMEDSLERCLGLIESCYDSQSVWSCVPATIYCNNAQLAPYQRTGRNVYDIRKDCEGGNLCYPTLQDIDDYLNQDYVKEAVGAEVDHYESCNFDINRNFLFAGDWMKPYHTAVTDLLNQDLPILVYAGDKDFICNWLGNKAWTDVLPWKYDEEFASQKVRNWTASITDEVAGEVKSYKHFTYLRVFNGGHMVPFDVPENALSMVNEWIHGGFSL
notes: purchased Sigma
With B1 the kcat was 6200 min⁻¹.
